Assays:
[1] = target: annexin A2 (ANXA2), endogenous, in conditioned medium of SCp2 cells (mouse) (UniProt P07356); test: anti-Flag IP from conditioned medium, LC-MS/MS spectra counts; selection criterion that ANXA2 passed
[2] = target: myristoylated alanine-rich C-kinase substrate (MARCKS), endogenous, in conditioned medium of SCp2 cells (mouse) (UniProt P26645); test: anti-Flag IP from conditioned medium, LC-MS/MS spectra counts; selection criterion that MARCKS passed
myristoylated alanine-rich C-kinase substrate (MARCKS), endogenous, in conditioned medium of SCp2 cells (mouse), sequence (P26645 2-309 limits assumed): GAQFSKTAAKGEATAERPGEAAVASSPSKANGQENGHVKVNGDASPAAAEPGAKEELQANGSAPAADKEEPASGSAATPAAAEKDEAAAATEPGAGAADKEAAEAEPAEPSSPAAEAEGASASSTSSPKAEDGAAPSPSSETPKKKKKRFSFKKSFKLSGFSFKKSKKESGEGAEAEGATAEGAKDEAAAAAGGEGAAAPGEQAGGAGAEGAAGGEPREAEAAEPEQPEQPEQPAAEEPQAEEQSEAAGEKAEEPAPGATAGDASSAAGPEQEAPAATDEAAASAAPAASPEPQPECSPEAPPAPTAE

annexin A2 (ANXA2), endogenous, in conditioned medium of SCp2 cells (mouse), sequence (P07356 2-339 limits assumed): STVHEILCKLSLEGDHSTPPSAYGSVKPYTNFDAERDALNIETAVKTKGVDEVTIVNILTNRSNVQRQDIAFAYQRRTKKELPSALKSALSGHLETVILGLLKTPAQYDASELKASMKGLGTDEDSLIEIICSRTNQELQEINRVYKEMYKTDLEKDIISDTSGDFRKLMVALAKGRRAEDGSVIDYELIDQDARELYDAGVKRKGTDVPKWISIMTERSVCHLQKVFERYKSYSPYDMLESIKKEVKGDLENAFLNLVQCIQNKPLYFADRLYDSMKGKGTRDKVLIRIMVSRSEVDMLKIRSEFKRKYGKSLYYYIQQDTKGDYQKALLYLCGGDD

fold change of abundance (spectra counts) in FL compared with dPEX [1]: > 1.5 fold
fold change of abundance (spectra counts) in FL compared with dPEX [2]: > 1.5 fold
Substance: Flag-tagged full-length human MMP3 (FL) (from UniProt P08254 18-477) (enzyme)

Reference: patent US20150079071A1, “NON-CATALYTIC DOMAIN TARGETS IN MATRIX METALLOPROTEASE PROTEINS FOR CANCER THERAPIES” (THE REGENTS OF THE UNIVERSITY OF CALIFORNIA, priority 2012, published 2015)
